Experimental data reported in the DeepSol protein solubility set.

Test: soluble on expression in E. coli; label from the status in PepcDB or PDB records

Soluble on expression in E. coli, soluble:
MKKGCKYGTHRVIEPAGVLPQPAKKISNDMEIFSNEILIDVIALNIDSASFTQIEEEAGHDVEKVKAKIKEIVAERGKMQNPVTGSGGMLIGTVEKIGDDLVGKTDLKVGDKIATLVSLSLTPLRIDEIINIKPEIDRVEIKGKAILFESGIYAVLPKDMPENLALAALDVAGAPAQVAKLVKPCQSVAILGSAGKSGMLCAYEAVKRVGPTGKVIGVVRNDKEKALLQRVSDKVKIVIADATKPMDVLHAVLEANDAKEVDVAINCVNVPNTEMSTILPVKEFGIAYFFSMATGFSKAALGAEGVGKDITMIVGNGYTVDHAAITLEELRESAVLREIFNEIYLLEHHHHHH
GAEFKEKPEAPTEQLDVACGQENLPVGAWPPGAAPAPFQYTPDHVVGPGADIDPTQITFPGCICVKTPCLPGTCSCLRHGENYDDNSCLRDIGSGGKYAEPVFECNVLCRCSDHCRNRVVQKGLQFHFQVFKTHKKGWGLRTLEFIPKGRFVCEYAGEVLGFSEVQRRIHLQTKSDSNYIIAIREHVYNGQVMETFVDPTYIGNIGRFLNHSCEPNLLMIPVRIDSMVPKLALFAAKDIVPEEELSYDYSGRYLNLTVSASKERLDHGKLRKPCYCGAKSCTAFLPFDSS
MSYKFGKLAINKSELCLANVLQAGQSFRWIWDEKLNQYSTTMKIGQQEKYSVVILRQDEENEILEFVAVGDCGNQDALKTHLMKYFRLDVSLKHLFDNVWIPSDKAFAKLSPQGIRILAQEPWETLISFICSSNNNISRITRMCNSLCSNFGNLITTIDGVAYHSFPTSEELTSRATEAKLRELGFGYRAKYIIETARKLVNDKAEANITSDTTYLQSICKDAQYEDVREHLMSYNGVGPKVADCVCLMGLHMDGIVPVDVHVSRIAKRDYQISANKNHLKELRTKYNALPISRKKINLELDHIRLMLFKKWGSYAGWAQGVLFSKEIGGTSGSTTTGTIKKRKWDMIKETEAIVTKQMKLKVELSDLHIKEAKID
MSDTANAAVEIGEEALEQKLEELSVQDKTTPSNSEEKMRKRRLPTAERIRLWEEEQKSKTAITTGLQGKVKWYSVLRRYGFISRNDGEKDIFVHQTAIAKSATEKFYLRTLGDDEEVLFDLVEGKNGPEAANVTGPNGDNVIGSRYRHKLLSRFRKNRKPRASVDGEESQSTDAKPQEMSADAEKKKPRKQRKNRNRKSKAQQKGAGDAADSSAVTESSESASDVASPDSKSCSKIITEEAGLSKVDRCDSALGEAGLGAQPIDAQI
MSLGITRVVLADDHAVVRAGLRTALAALPDCEVVSEAATGPQLLAVLAQHHPDLLVVDVAMPDFDPIATIRQIHADYPAMKILVVSAYDDQSYVVGLLAAGVNGYHLKDQPLSDLQLAVQRIMAGGNWISSPLLSRLIQAAPQIAHSSPITLTKRQRDLLRLIAQGYDNRRMAQEMDLSIKTIENHLTALYRTIRVSSRLEAYQFALRHPELLAESGHEAALSREPSTSPAPLMVMIIDDNERYRAQLKRMIGKACAESQIYEAEDCHEATRLLRQITPDLVFVDVILQDGDGIQCLRRLKSVSPHTRVILISAYPDREFRRLGLEAGALAFLDKKDLDAATVRQVVEDTLRREGHHHHHH
MGHHHHHHSHVNTLGPEGTSSEYAAKHFISNFTLLQGLNSKLSLHDTFESCIERTLQSPLEYTIVPHAYDGIKHFYMRPDLQLLQIFRCDTPMYGLAVRPDFEFRDDMLDTSVIVSHPSPINLIKYFTRKDVRFKLVNSTSQAARKVKEGLYDIALTNELARQKYGLTFVKTFKSIPMSWSLFGKGDV
SLHAQTFHSDSLLSQEEAAAAGDRRPAPDTWIYPLIQMKPFEIQIDEIVTETLLMEAERGAKVFLTTGYFNLTQAYMDLVLGTRAEYQILLASPEVNGFFGAKGVAGAIPAAYVHIERQFYSEVCSLGQQDRVQLQEYWRRGWTFHAKGLWLYLAGSSLPCLTLIGSPNFGYRSVHRDLEAQIAIVTESRSLQQQLHQEQEQLYLRSGVVTSATFEQPGRQVKLWVKMVTPLIKNFF
MMINIQEDKLVSAHDAEEILRFFNCHDSALQQEATTLLTQEAHLLDIQAYRAWLEHCVGSEVQYQVISRELRAASERRYKLNEAMNVYNENFQQLKVRVEHQLDPQNWGNSPKLRFTRFITNVQAAMDVNDKELLHIRSNVILHRARRGNQVDVFYAAREDKWKRGEGGVRKLVQRFVDYPERILQTHNLMVFL
MVKATNVDLSLEDIISKTRKTTGSIQKKSFGGARRGNTRPTGLPRRSGGSGGWKDLDAVQNHGISSRGNDSKVIRVNISNLAPTVISSDLEELFGDYRLSSVSVNFNEHGDSLGTGDISLTKRDAERLVQKFSGVALDGKIMKFAVIDSSNMAGRVDFGNRSRSSPGRSSRGFQSGPRRNNGKPEDFLRDGVHAGDIKRGGAGRGGFRKGGRGGARDAKPKKTEAELDAELEAYMAKRNA
MAHHHHHHMSRLLKHYGSCKTAFFCCDIQEKFMGRIANSANCVFVANRFAGLHTALGTAHSVYIVTEQYPKGLGATSADIRLPPDAHVFSKKRFAMLVPQVMPLVDLPEVEQVVLWGFETHVCILQTAAALLDMKKKVVIAVDGCGSQSQGDHCTAIQLMQSWSGDGCYISTSESILMQLLKDASDPVFKTIAPLMKQTHPIRI

Soluble on expression in E. coli, not soluble:
MGSDKIHHHHHHMSTLLQHVNLTEFVDVARQLGLDPYRQLRQAGIRPTALVDPEMRVPAKSVMQLLEDSAQLAGLEDLGLRVAEARELTTLGPLWTVMREGATLRNALGAMARYLHLLNEALDLRLEEVGDTAVVRLEFLVSVDGSMRQSTEFIICLWFRLFKLLSGDAWKPRSVCFTHAAPASLATHRRVFGVPVRFHQDFDGILLSAADLDVAGTTSDTALGRHAREFLDTKLAQSDSTMPDKVRKLVFALLPTGECGAEQVARQLGIDRKTMHRHLAAYGQNYLSVVDAVRVELVTRYLKNNERPLSDVAILMGFSSLSAFSRWFATRYGCSVSAWRRQRTAPEIRR
MKILYIVLDGAADSPTSPRKTLEEASKPNIDSLGSHAVCGMVYTVKPGVAPQSDYATLSLLGYNPDEYYPGRGPLEAFGAGIEMRRGDIALRANFATVDPGTLRIIDRRVGRSLTSREARELASAVDGMELEDGEGTALFRATIGHRGVLVLRHRSKPLSDAISNTDPAYERRGRFSVALEKYEPFIKLSNPLVEDEAAVLAARMLNEFTLKAVEILDSHPVNLAREKRGLLKANAILSRDAGGLPEEKPPSFQERFGLRGASIVEMVVERGISRYIGLDDIRVEIEGRAREEVYREEAARAVEALETHDLVYVHLKGPDEPGHDGSFEGKIRAVEDIDKHFFAPLLDRLSSAGLEPAFVVTSDHATPWDVGAHSGDPVPLMISHQSIQ
MSLYHYFRPAQRSVFGDLMRDMAQMERQFTPVCRGSPSESSEIVNNDQKFAINLNVSQFKPEDLKINLDGHTLSIQGEQELKTEHGYSKKSFSRVILLPEDVDVGAVASNLSEDGKLSIEAPKKEAIQGRSIPIQQAPVEQKTSE
MAHHHHHHMSNHGGSSSLDALGGVETAAAETTRNIVLGLPKDGPVPGSSDAASLQAAEAFIGSIQQEIMACDMANARAMELYARHWWTKVPYFGKRFGSTTATLEVTGADGGGVSGLPACTGTSDGQHKHMRLERSSEVAAVPGTSRGQQQRLNSWFFKLRHPGWVPIIQRPWVPYFCIGCLMLVWTPDIWKLRTLHWCDYQYAEFRRAVHRAYWRATMSAEDYKELMEELERGRPPPFGVSKCPL
MTTDAAVAELLALGELTVRGRIRDASNAALYCTVTHEGREAACVYKPVAGERPLWDFPDGTLAQREVAAYEVSEATGWGLVPPTVLRDGPYGEGMVQLWIETVPETELLALVDEEEPGPGWKGIALAEVGEGRTALLVHADDERLRRLAVLDAVINNADRKGGHLLPAAGERLYGIDHGVTFNAENKLRTLLWGWAGDALTGEALAVLDALRRALKDGGTLALRLAALITPAELDATRARVDALLASGKHPEPGGEWPAIPWPPVLEHHHHHH
MGICVVIPAFNAALTIEAVVRETLEQGLPLVVVDDGSEDGTADCVRGLPVNLVSHGRNRGKGAALKTGFAWALEYGFSGVITLDSDGQHDPTAITLLAETAKNDGWDILVASRFAQFNQMAGLRRHWNRFGAWCMKKRTGFQIDDSQSGFRYYSARLLRMVSLGKDGYDLEMEILMKAWQAGCTIGSVPVPARVADGRATSHFRPVRDTWNICMTFLRYMLEHHHHHH
MGSDKIHHHHHHMKKNIIILGLISLLAVSCGDDFLTTHPGDSVSTDLALSTEQDIDNAVNGLYDLMSSYGYYGGTMFFYGDMKGDDMQSSYNSGRTCNRCYLYDHRSTSLNAGYLWGRPFYIIRNAWNVINAIDDGKVQGSEQRLKELKGEAMTIMALCQFDLTRCFGYPYTKDKGAGWGAPIVDHAITLDENPPRSTVAKDYEFIISTLEEAIPLMSTSKNNSRMNAYAARALLSRIYLYHDDNEKAFQMASNLIEEVEGNGMYRLYTRDEYVPAWDLKNTFGTESLFEIANSTDDNGGRSSLAYLMHWNGYREIFATQKFVDELLSDPEDIRCLLLEKNVYNKNDVWWLKKWPGTDATTPSFENNYVIFRLSEVYLNAAEAGVKIGGASAVKGLNYLNAIVQRANPAKEVTAAEYTLDRVLEERSKELIGEGHRFFDMLRNGKTIVRKGGYHLPGIVEEIDWDYYKCVLPIPTDQFTFSPDMEQNPGYTKN
MAKELCFEGITLKAFDEQYRSAINDFDLNERQQIYSSLPKEVIDDAINDVDRIANVAINDKNEVVGFFVLHRYYQHEGYDTPENVVYIRSLSINEKYQGFGYGTKIMMSLPQYVQGVFPDFNHLYLVVDAENDNAWNLYERAGFMHTATKEEGPIGKERLYYLDLDSKHVSSLKLEEESRSEVTNVHIINLMIDGQKVGFIALEQIGERMNIAAIEVDKSYRFNGIGSSALRQLPTYLRKNYDNLNVITMILFGENNDFKPLCLNSNFVEIEQTDDYVVFEKYLNY
GPGSPPSDPRSLHFYNPYHPNSYIRAMLAVSNVVQEYDSDGMFPVYGFGAVAPFTNGTSHFFPLSGNPSNAYLNGMQAVVDTYAGLLPMLQFSGPTNFAPTIRTITDGARRLRGVYTILLILTDGTITDMQDTIDAIVAADDAPLSIVIIGIGRADFSAMVQLDGDGGVLRDRSNRPARRDLVQFVSFSEFEGKNPARLAAAVLLEIPKQVEVWGRIVHATPGHF
MGSDKIHHHHHHMTRQCHPLATVVDACAPLRFAPLPDLRLRSFTRSGDQGDAGQWCRADLLAAKNAFAPVYDGFVAATRPGHRLPAATHFLRAVFREPIFLVAAGLYLTGRAPLLDASHLWFPVRADRTLGTPMLTELKVAVTADDRFAGHPETVTFPGSDDVVRAAAHAMVAAFTPVIDALSAHTRVGKRTLWGWVLDTAHFYMLNPARFLGRDAQAAWALANRLADALLEAGAVTRARPRLFPFCDNHPRGTWAVRGTCCFDYKGDPEHGYCTTCPHKCDNERRNELQEWLRNPALAP
MNIDSDIFKIQSNNVLPSRGKILISEPFLRDATFGRSVVLLIDHTEEGSMGLIINKQLPIFVNDIIKEFKYIENIPLYKGGPIATDTLFYLHTLADIPGAIPISKGLYLNGDFDEIKKYILQGNKVDRYIRFFLGYSGWESEQLSTELKENTWLVSKEENAYLMNGDTKDMWKQALEKLGSKYETWSRFPQVPTFN
MEKYPEIQQMRSKMREGDDTNEFKIRPLKGLSHPSGNLQMQRFQEDRRERIHSIRKRENQDGRLDLIGVVGEITVVIDDVVYEEEKLRKVVFTMKG
MKENAVRRANDPKRREKIIQATLEAVKTYGVHAVTHRKIAAIAQVPLGSMTYYFAGMDALLSEAFTLFTENMSRQYQDFFAQVTDAEGACQAITEMIYGSQVTTPDNMALMYQLYAYASDKPALKIVMQNWMQRSQNTLAQWFDAQTARALDAFIEGMTLHFVTDRTPLAREAILQMVKRIAGVSMSCHSALGNKKPTNLEPKWRG
